Test [1] deals with T1, ICAM-1 on NOD mouse APC / spleen cells (mouse (NOD), UniProt P13597 28-537).
T1 construct: whole, on cells; Native ICAM-1 on live NOD spleen cells
The test can be described thus: flow cytometry on live APC, blocking by mAb. Here is the method: J. Immunol. 2337-2344 (1994). Spleen cell density-gradient fractions from normal (unimmunized) NOD, BALB/c and other MHC congenic strains were incubated in round bottom 96-well plates with increasing concentrations of individual biotinylated peptides at 37° C.,5% CO₂ for 16 hours. Following binding of the BPI to the APC, Avidin-FITC was incubated with the cells on ice for 30 minutes, followed bybiotinylated anti-Avidin for 1 hour, then again with Avidin-FITC. For BPI titrations, increasing concentrations (0.1-100 μM) of the biotinylated derivatives in sterile 0.5% BSA-PBS were incubated with the APC for 16 hours as above.
To test for competitive inhibition of BPI binding with unlabeled peptides or monoclonal antibodies to MHC-II and ICAM-1 on live APC, freshly isolated fractions of spleen cells were incubated with the previously biotinylated BPI. However, for this portion of the experiment, the experimental wells contained various unlabeled peptides (e.g., antigenic peptides or LFA-1 peptides), and/or monoclonal antibody (e.g., anti-MHC-II or anti-ICAM-1 mAb) inhibitors. Negative selection methods with monoclonal antibodies conjugated to magnetic particles were used to enrich the spleen cell fractions for B cells, macrophages, or dendritic cells as well as to examine differences in BPI binding to these different populations. […]

For test [2], the target named is T1, ICAM-1 on NOD mouse APC / spleen cells. The test can be described thus: co-capping, fluorescence microscopy, T-depleted spleenocytes of NOD mice given the BPI i.v. Here is the method:
To test the ability of the BPI peptide to link MHC-II and ICAM-1 molecules on the APC surface, we used a modification of a co-capping experiment originally described for monoclonal antibodies. […] Antibody-bound cells are then incubated with streptavidin (37 C×15 min.) to cap the MHC-II molecules on the APC surface. The cells were transferred to ice and labeled with a fluorescent (PE) monoclonal antibody to ICAM-1 (3E2). The cells are plated and observed for evidence that a given BPI links ICAM-1 into the MHC-II cap, i.e., by standard fluorescence microscopy and image analysis.

Where no end group is shown, it is not given here. [ ]: non-standard residue; d: D form. Ahx = NCCCCCC(=O)O

T1 sequence (P13597 28-537): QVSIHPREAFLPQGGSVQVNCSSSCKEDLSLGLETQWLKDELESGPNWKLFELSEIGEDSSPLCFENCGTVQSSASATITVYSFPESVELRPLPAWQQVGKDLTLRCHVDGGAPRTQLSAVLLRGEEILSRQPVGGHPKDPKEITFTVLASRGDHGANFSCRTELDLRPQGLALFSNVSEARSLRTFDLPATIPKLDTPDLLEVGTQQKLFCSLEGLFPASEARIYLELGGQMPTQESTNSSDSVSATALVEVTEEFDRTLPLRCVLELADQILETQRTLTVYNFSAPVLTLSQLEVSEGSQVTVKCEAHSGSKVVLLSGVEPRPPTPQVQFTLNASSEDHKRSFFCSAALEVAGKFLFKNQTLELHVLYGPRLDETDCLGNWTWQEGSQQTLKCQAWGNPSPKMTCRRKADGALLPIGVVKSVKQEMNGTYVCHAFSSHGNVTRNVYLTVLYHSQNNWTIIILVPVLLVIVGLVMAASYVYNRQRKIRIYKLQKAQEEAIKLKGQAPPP

Take EIAPVFVLLE[Ahx]G[Ahx]G[Ahx]ITDGEATDSG (also: biotinylated with NHS-Biotin, site not given here, also called diabetes BPI; GAD 65 BPI) [biotinylated EGAD-BPI (GAD65(208-217)-[Ac-G-Ac-G-Ac]-CD11a (237-247))]: in test [1], the binding result is on record as “binds”.

On to EIAPVFVLLE[Ahx]G[Ahx]G[Ahx]ITDGEATDSG (also called diabetes BPI) [EGAD-BPI (GAD65(208-217)-[Ac-G-Ac-G-Ac]-CD11a (237-247)), unlabeled], for which, in test [2], the binding result is on record as “binds”.
